Data on 1 molecule can be found in patent US8734776B2 (ZymoGenetics, Inc., priority 2003, dated 2014).

One series deals with adenoviral vector, AdGFP. In words: Adenoviral (AdGFP) liver pathology in mice. To be noted: C57Bl/6 mice. The format is in vivo, mouse. The protocol: When injected intravenously, these viruses primarily target the liver for gene expression. The adenoviruses are replication deficient, but cause liver damage due to inflammatory cell infiltrate that can be monitored by measurement of serum levels of liver enzymes like AST and ALT, or by direct examination of liver pathology.
C57B116 mice were given once daily intraperitoneal injections of 50 μg mouse IL-28 (zcyto24 as shown in SEQ ID NO:8) or metIL-29C172S—PEG for 3 days. Control animals were injected with PBS. One hour following the 3rd dose, mice were given a single bolus intravenous tail vein injection of the adenoviral vector, AdGFP (1×10^9 plaque-forming units (pfu)). Following this, every other day mice were given an additional dose of PBS, mouse IL-28 or metIL-29C172S—PEG for 4 more doses (total of 7 doses). One hour following the final dose of PBS, mouse IL-28 or metIL-29C172S—PEG mice were terminally bleed and sacrificed. The serum and liver tissue were analyzed. Serum was analyzed for AST and ALT liver enzymes. Liver was isolated and analyzed for GFP expression and histology. For histology, liver specimens were fixed in formalin and then embedded in paraffin followed by H&E staining. Sections of liver that had been blinded to treat were examined with a light microscope. Changes were noted and scored on a scale designed to measure liver pathology and inflammation.

Series [1] relates to ISRE signaling in HepG2 cells. To be noted: 100 ng/ml; 4-hour.
The test system of the next series is AML-12 cells. In words: ISG induction in mouse liver cell line AML-12 (real-time PCR). The class given is cell-based. To be noted: 20 ng/ml, 48 hour time point. On the technique in general: Real-time PCR tracks product formation cycle by cycle.
For series [2], the system named is encephelomyocarditis virus. In words: Antiviral assay: cytopathic effect in L929 cells. The format is cell-based, mouse. (In general: Damage to the host cells serves as the signal in cytopathic effect assays.)
Series [3] has as its system encephelomyocarditis virus. In words: Antiviral assay: cytopathic effect in HeLa cells. The format is cell-based, human.
A further series concerns Mouse B cells. The series can be described thus: Mouse B cell 3H-thymidine incorporation. The class given is cell-based. The protocol: Mouse B cells were isolated from 2 Balb/C spleens (7 months old) by depleting CD43+ cells using MACS magnetic beads. Purified B cells were cultured in vitro with LPS, anti-IgM or anti-CD40 monoclonal antibodies. Mouse IL-28 or mouse IFNα was added to the cultures and ^3H-thymidine was added at 48 hrs. and ^3H-thymidine incorporation was measured after 72 hrs. culture.
For orientation: Dividing cells build labelled thymidine or BrdU into new DNA.

B1: zcyto24: mouse IL-28, SEQ ID NO:8 (protein, listed as Mus musculus)
chain: MKPETAGGHMLLLLLPLLLAAVLTRTQADPVPRATRLPVEAKDCHIAQFKSLSPKELQAFKKAKDAIEKRLLEKDLRCSSHLFPRAWDLKQLQVQERPKALQAEVALTLKVWENMTDSALATILGQPLHTLSHIHSQLQTCTQLQATAEPRSPSRRLSRWLHRLQEAQSKETPGCLEASVTSNLFRLLTRDLKCVANGDQCV
modifications: SIGNAL (1)...(28)
As to B1, the “liver histology: liver and inflammation scores versus PBS-treated group” value with adenoviral vector, AdGFP was “lower liver and inflammation scores”. In the series with adenoviral vector, AdGFP (50 μg i.p., 7 doses, n=8), the “average serum AST” value stood at 193 U/L. The molecule also had a relative liver fluorescence in the series with adenoviral vector, AdGFP (50 μg i.p., 7 doses, n=8) of 34.5 arbitrary units. Besides, the “serum ALT” value in the series with adenoviral vector, AdGFP (50 μg i.p., 7 doses, n=8) is given as 216 U/L. For the same molecule, in series [1], the “Fold Induction of Cytokine-dependent ISRE Signaling in HepG2 Cells” value was found to be 4.7 fold. Also, in the series with AML-12 cells, the “Mx1 expression relative to HPRT” value is reported as 0.08. Further, the “OAS expression relative to HPRT” value in the series with AML-12 cells is given as 0.04. For the same molecule, the “PkR expression relative to HPRT” value with AML-12 cells was found to be 0.02. For the same molecule, the “Percentage Cytopathic Effect” value in series [2] (relative CM conc. .008X), in series [2] (relative CM conc. .0156X), in series [2] (relative CM conc. .0325X), in series [2] (relative CM conc. .0625X), in series [2] (relative CM conc. .125X) and in series [2] (relative CM conc. .25X) was 87% in each case. The “Percentage Cytopathic Effect” value is recorded as 87% in series [2] (relative CM conc. .5X); 0% in series [3] (relative CM concentration .008X); 0% in series [3] (relative CM concentration .0156X); 0% in series [3] (relative CM concentration .0325X); 0% in series [3] (relative CM concentration .0625X); 0% in series [3] (relative CM concentration .125X). Further, the “Percentage Cytopathic Effect” value in series [3] (relative CM concentration .25X) and in series [3] (relative CM concentration .5X) was 0% each time. Moreover, in the series on Mouse B cells (stimulated with LPS or anti-IgM, IFNα 10 ng/ml, mouse IL-28 any concentration including 1000 ng/ml), the “3H-thymidine incorporation by mouse B cells” value is “did not inhibit”. Further, in the series with Mouse B cells (stimulated with anti-CD40 MAb), the “3H thymidine incorporation by mouse B cells” value was “increased”.
